The chains are these.
B3: his6-Vam3 (full length), His6-tagged Qa SNARE (natural protein, S. cerevisiae, UniProt Q12241 1-283, looked up)
chain: MSFFDIEAQSSKGNSQQEPQFSTNQKTKELSNLIETFAEQSRVLEKECTKIGSKRDSKELRYKIETELIPNCTSVRDKIESNILIHQNGKLSADFKNLKTKYQSLQQSYNQRKSLFPLKTPISPGTSKERKDIHPRTEAVRQDPESSYISIKVNEQSPLLHNEGQHQLQLQEEQEQQQQGLSQEELDFQTIIHQERSQQIGRIHTAVQEVNAIFHQLGSLVKEQGEQVTTIDENISHLHDNMQNANKQLTRADQHQRDRNKCGKVTLIIIIVVCMVVLLAVLS
notes: Vam3, vacuolar Qa-SNARE, S. cerevisiae, full length; A 36 amino acyl linker stands between the his6 tag and the N-terminus (Izawa et al., 2012, PMID 22174414); also called His6-Qa; source: E. coli, purified; not shown: His6 (with a 36 amino acyl linker), N-terminal, kept

Common to all, as to conditions: both partners purified
Assay [1] deals with T1, Qa-SNARE Vam3, full-length, wild-type (S. cerevisiae, UniProt Q12241 1-283).
T1 construct: Vam3, vacuolar Qa-SNARE, S. cerevisiae, full length; Isolated as GST-Qa (Mima et al., 2008); also called GST-Qa; source: E. coli, purified; reconstituted into proteoliposomes
T1 sequence (looked up): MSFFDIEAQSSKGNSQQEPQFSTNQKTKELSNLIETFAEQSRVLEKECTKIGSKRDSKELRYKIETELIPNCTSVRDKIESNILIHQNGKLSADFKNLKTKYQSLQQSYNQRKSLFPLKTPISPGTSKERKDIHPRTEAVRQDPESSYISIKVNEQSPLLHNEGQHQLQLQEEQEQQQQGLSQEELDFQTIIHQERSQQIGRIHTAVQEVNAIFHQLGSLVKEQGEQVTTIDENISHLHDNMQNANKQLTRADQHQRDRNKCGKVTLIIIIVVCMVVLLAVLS
Put plainly: pull-down; GST-tagged R at 4 µM mixed with 4 µM of the other indicated full-length SNAREs in 20 mM HEPES-NaOH pH 7.4, 150 mM NaCl, 10% glycerol, 100 mM ß-octylglucoside; 1 hr 4°C; glutathione agarose 4B; Coomassie-stained gel.

The target of assay [2] is T1, Qa-SNARE Vam3, full-length, wild-type. The experiment in a line: co-IP; Ypt7/R and Ypt7/QaQb proteoliposomes incubated 33 min with or without 50 nM HOPS and 4 μM Qc; solubilised in modified RIPA buffer with 5 μM GST-R; precipitated with anti-Qa antibody on protein A magnetic beads, 4°C 2 hr; immunoblot for R.
The target of assay [3] is B3. The experiment in a line: pull-down; his6-tagged Qa or his6-tagged Qb at 4 µM mixed with 4 µM of the other indicated full-length SNAREs in 20 mM HEPES-NaOH pH 7.4, 150 mM NaCl, 10% glycerol, 100 mM ß-octylglucoside, 20 mM imidazole; 1 hr 4°C; nickel-NTA agarose; Coomassie-stained gel.
Assay [4] concerns the target T2, Qc-SNARE Vam7, full-length, wild-type (inherently water-soluble) (S. cerevisiae, UniProt P32912 1-316).
T2 construct: Vam7, vacuolar Qc-SNARE, S. cerevisiae, full length; source: E. coli, purified
T2 sequence (looked up): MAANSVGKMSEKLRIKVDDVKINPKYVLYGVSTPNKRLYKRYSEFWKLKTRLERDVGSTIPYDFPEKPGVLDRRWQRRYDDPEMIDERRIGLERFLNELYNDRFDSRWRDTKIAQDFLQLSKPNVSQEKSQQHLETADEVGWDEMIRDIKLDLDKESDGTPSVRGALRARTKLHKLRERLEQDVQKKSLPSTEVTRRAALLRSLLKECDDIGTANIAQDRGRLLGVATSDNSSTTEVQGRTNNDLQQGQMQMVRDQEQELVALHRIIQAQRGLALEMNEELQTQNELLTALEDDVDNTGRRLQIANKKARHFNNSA
Described as above.

In assay [5] the target is T1, Qa-SNARE Vam3, full-length, wild-type. The description is as above.

B1: GST-Nyv1, GST-tagged full-length R SNARE (natural protein, S. cerevisiae, UniProt Q12255 1-253, looked up)
chain: MKRFNVSYVEVIKNGETISSCFQPFQKNENYGTITSANEQITPVIFHNLIMDMVLPKVVPIKGNKVTKMSMNLIDGFDCFYSTDDHDPKTVYVCFTLVDMPKILPIRILSGLQEYESNATNELLSSHVGQILDSFHEELVEYRNQTLNSSGNGQSSNGNGQNTISDIGDATEDQIKDVIQIMNDNIDKFLERQERVSLLVDKTSQLNSSSNKFRRKAVNIKEIMWWQKVKNITLLTFTIILFVSAAFMFFYLW
notes: Nyv1, vacuolar R-SNARE, S. cerevisiae, full length, cloned into pGST parallel1; Vector pGST parallel1 (Sheffield et al., 1999), BamHI/SalI; also called GST-R; GST-tagged R SNARE; source: E. coli Rosetta(DE3)pLysS, purified (glutathione-Sepharose 4B, in β-octylglucoside)
Regarding B1, the binding result in assay [1] was “binds”.

B2: R-SNARE Nyv1, full-length, wild-type, untagged (natural protein, S. cerevisiae, UniProt Q12255 1-253, looked up)
chain: MKRFNVSYVEVIKNGETISSCFQPFQKNENYGTITSANEQITPVIFHNLIMDMVLPKVVPIKGNKVTKMSMNLIDGFDCFYSTDDHDPKTVYVCFTLVDMPKILPIRILSGLQEYESNATNELLSSHVGQILDSFHEELVEYRNQTLNSSGNGQSSNGNGQNTISDIGDATEDQIKDVIQIMNDNIDKFLERQERVSLLVDKTSQLNSSSNKFRRKAVNIKEIMWWQKVKNITLLTFTIILFVSAAFMFFYLW
notes: Nyv1, vacuolar R-SNARE, S. cerevisiae, full length; source: E. coli, purified; buffer exchanged into β-octylglucoside; reconstituted into proteoliposomes
For the molecule B2, the binding result in assay [2] and in assay [3] was “binds” each time.

As for B3, in assay [4], the binding result is “binds”.

B4: his6-Vti1 (full length), his6-tagged Qb SNARE (natural protein, S. cerevisiae, UniProt Q04338 1-217, looked up)
chain: MSSLLISYESDFKTTLEQAKASLAEAPSQPLSQRNTTLKHVEQQQDELFDLLDQMDVEVNNSIGDASERATYKAKLREWKKTIQSDIKRPLQSLVDSGDRDRLFGDLNASNIDDDQRQQLLSNHAILQKSGDRLKDASRIANETEGIGSQIMMDLRSQRETLENARQTLFQADSYVDKSIKTLKTMTRRLVANKFISYAIIAVLILLILLVLFSKFK
notes: Vti1, vacuolar Qb-SNARE, S. cerevisiae, full length; A 36 amino acyl linker stands between the his6 tag and the N-terminus (Izawa et al., 2012, PMID 22174414); also called his6-Qb; source: E. coli, purified; not shown: His6 (with a 36 amino acyl linker), N-terminal, kept
Turning to B4, the binding result in assay [5] was “binds”.

B5: Qb-SNARE Vti1, full-length, wild-type (natural protein, S. cerevisiae, UniProt Q04338 1-217, looked up)
chain: MSSLLISYESDFKTTLEQAKASLAEAPSQPLSQRNTTLKHVEQQQDELFDLLDQMDVEVNNSIGDASERATYKAKLREWKKTIQSDIKRPLQSLVDSGDRDRLFGDLNASNIDDDQRQQLLSNHAILQKSGDRLKDASRIANETEGIGSQIMMDLRSQRETLENARQTLFQADSYVDKSIKTLKTMTRRLVANKFISYAIIAVLILLILLVLFSKFK
notes: Vti1, vacuolar Qb-SNARE, S. cerevisiae, full length; the text names it Qb without a tag; also called GST-Qb; source: E. coli, purified; buffer exchanged into β-octylglucoside; reconstituted into proteoliposomes
As for B5, in assay [3], the binding result is listed as “binds”.

The values above are taken from PMC6994237, “HOPS recognizes each SNARE, assembling ternary trans-complexes for rapid fusion upon engagement with the 4th SNARE” (eLife, 2020).
